Assay results reported in patent US7838288B2, “Modulators of odorant receptors” (Duke University, priority 2004, dated 2010).

T1: mouse odorant receptor OREG (Mus musculus, UniProt Q920P2)
T1 construct: expressed in transfected cells; host or cells: 293T cells (with or without co-transfected REEP1/RTP1/RTP2) and Hana3A cells (293T stably expressing mouse REEP1, RTP1, RTP2, Galpha-olf)
T1 sequence (Q920P2 1-313): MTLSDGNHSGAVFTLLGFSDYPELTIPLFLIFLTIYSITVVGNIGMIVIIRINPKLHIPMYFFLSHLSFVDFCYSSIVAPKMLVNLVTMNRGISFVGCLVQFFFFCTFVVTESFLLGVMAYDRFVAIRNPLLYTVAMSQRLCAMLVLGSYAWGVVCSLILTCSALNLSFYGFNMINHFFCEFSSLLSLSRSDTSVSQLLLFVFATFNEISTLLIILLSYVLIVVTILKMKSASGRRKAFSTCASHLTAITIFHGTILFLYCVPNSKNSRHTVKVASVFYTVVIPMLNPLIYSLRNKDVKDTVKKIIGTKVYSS


How the values were obtained:
olfr62 = assay: CRE-luciferase reporter gene assay, olfr62; format: cell-based, mouse; conditions: Hana3A cells
Procedure: Four ORs (S6/79, S18, S46 and S50) previously assayed using other techniques (see, e.g., Malnic, B., et al. (1999) Cell 96, 713-723; herein incorporated by reference in its entirety) were tested against an assay panel of aliphatic alcohols, aldehydes and acids and some other odorants. Additionally, five “orphan” class I ORs (MOR23-1, MOR31-4, MOR31-6, MOR32-5 and MOR32-11) whose cognate ligands were unknown were tested. At a suprathreshold concentration of 100 uM, all these ORs were odorant selective, responding to only a small subset of the odorants tested (see FIG. 11A). This specificity was retained at lower, more physiologically relevant concentrations. Many of these ORs responded to odorants present in micromolar concentrations. The cell-surface expression of these ORs by living-cell immunofluorescence were evaluated. Some ORs (S18, MOR31-4, MOR31-6 and MOR32-5) were strongly expressed while other ORs (S6, S50, MOR23-1, MOR32-11) were weakly expressed (see FIG. 12). The present invention is not limited to a particular mechanism. Indeed, an understanding of the mechanism is not necessary to practice the present invention. […] Finally, two additional orphan class II ORs, MOR203-1 and olfr62, were tested against a panel of 139 odorants. […] Olfr62 responded to coumarine and piperonal (see FIG. 11C). […] When parental 293T cells for these ORs were used in this luciferase assay, little or no response to the odorants was observed. The present invention is not limited to a particular mechanism. Indeed, an understanding of the mechanism is not necessary to practice the present invention.
Dual-Glo system (Promega) for luciferase assay was used. CRE-Luciferase (Stratagene) was used to measure the receptor activities. Renilla luciferase driven by constitutively active SV40 promoter (pRL-SV40: Promega) was used as an internal control. Cells were plated on poly-D-lysine coated 96 well plates (BIOCOAT, Beckton Dickinson). After 8 hours (for experiments shown in FIGS. 8B and 8C) or 12 hours (for experiments shown in FIG. 8D and FIG. 11) after transfection, the medium was replaced with CD293 chemically defined medium (Invitrogen) and the plates were incubated for one hour at 37 degrees C. The medium was replaced with 50 ul of odorant solutions dissolved in CD293 and incubated for 10 hours (for experiments shown in FIGS. 8B and 8C) or 4 hours (for experiments shown in FIG. 8D and FIG. 11) at 37 degrees C. The manufacture's protocol for measuring luciferase and Renilla luciferase activities was followed. Luminescence was measured using Wallac Victor 1420 (Perkin-Elmer). Normalized luciferase activity was calculated as [Luc (N)-Luc (0)]/RL (N), where Luc (N)=Luminescent count of a certain well, Luc (0)=Luminescent count without odorant for each OR, and RL (N)=Luminescent count of Renilla Luciferase of each well. For cAMP assays, cells were plated onto 24-well plate. […]. Prism software (Graphpad) was used for data analysis. […]

[1] = molecular target: T1, mouse odorant receptor OREG; assay: CRE-luciferase reporter gene assay, OREG; format: cell-based; conditions: 293T cells; compared to OR alone or control pCI
Text: Poor odorant evoked signaling activity in heterologous cell culture systems expressing ORs has been attributed to the poor cell surface expression of ORs. The identification of REEP and/or RTP allowed a direct assessment of this issue. A luciferase reporter gene assay was employed in which a cAMP responsive element (CRE) mediated luciferase gene expression (see FIG. 8A). Because OR activation leads to an increase in cAMP, activation of the mouse odorant receptor OREG by its ligand eugenol was measured in the presence and absence of REEP and/or RTP (see, e.g., Kajiya, K., et al. (2001) J Neurosci 21, 6018-6025; Touhara, K., et al., (1999) Proc Natl Acad Sci USA 96, 4040-4045; each herein incorporated by reference in their entireties). As reported previously, eugenol increased levels of OREG dependent luciferase activity (see, e.g., Katada, S., et al. (2003) Biochem Biophys Res Commun 305, 964-969; herein incorporated by reference in its entirety).
To facilitate analysis of odorant-OR interactions, 293T cell lines were established which stably express REEP1, RTP1, RTP2 and Gαolf, the G protein alpha subunit that couples to OR (see, e.g., Belluscio, L., et al. (1998) Neuron 20, 69-81; Jones, D. T., and Reed, R. R. (1989). Science 244, 790-795; each herein incorporated by reference in their entireties). To establish such cells, linearized expression vectors containing mouse REEP1, RTP1, RTP2 and Gαolf ORFs were transfected into 293T cells with PGK-Pac (puromycin resistant gene) (see, e.g., Watanabe, S., et al. (1995) Biochem Biophys Res Commun 213, 130-137; herein incorporated by reference in its entirety). […] Enhanced cell-surface expression was observed when OREG or other ORs were transfected in Hana3A cells and immunostained (see FIG. 10). […] Expression of Gαolf alone in 293T cells had little or no effect on OR activation using this assay.
Dual-Glo system (Promega) for luciferase assay was used. CRE-Luciferase (Stratagene) was used to measure the receptor activities. Renilla luciferase driven by constitutively active SV40 promoter (pRL-SV40: Promega) was used as an internal control. Cells were plated on poly-D-lysine coated 96 well plates (BIOCOAT, Beckton Dickinson). After 8 hours (for experiments shown in FIGS. 8B and 8C) or 12 hours (for experiments shown in FIG. 8D and FIG. 11) after transfection, the medium was replaced with CD293 chemically defined medium (Invitrogen) and the plates were incubated for one hour at 37 degrees C. The medium was replaced with 50 ul of odorant solutions dissolved in CD293 and incubated for 10 hours (for experiments shown in FIGS. 8B and 8C) or 4 hours (for experiments shown in FIG. 8D and FIG. 11) at 37 degrees C. The manufacture's protocol for measuring luciferase and Renilla luciferase activities was followed. Luminescence was measured using Wallac Victor 1420 (Perkin-Elmer). Normalized luciferase activity was calculated as [Luc (N)-Luc (0)]/RL (N), where Luc (N)=Luminescent count of a certain well, Luc (0)=Luminescent count without odorant for each OR, and RL (N)=Luminescent count of Renilla Luciferase of each well. For cAMP assays, cells were plated onto 24-well plate. […]. Prism software (Graphpad) was used for data analysis.

MOR203-1 = assay: Living-cell staining of cell-surface MOR203-1; format: cell-based, mouse; conditions: accessory protein co-transfected in 293T cells
Text: After hypothesizing that mammalian ORs require accessory protein(s) for functional cell surface expression, a search was instituted for detecting such molecule(s). Long-SAGE (serial analysis of gene expression) libraries (see, e.g., Saha, S., et al., (2002) Nat Biotechnol 20, 508-512; herein incorporated by reference in its entirety) were constructed from single olfactory neurons as well as neurons from the vomeronasal organ and genes were collected that are expressed by these neurons. To identify candidate genes expressed by the olfactory neurons Digital Differential Display (see, e.g., http://www, followed by, .ncbi.nlm.nih.gov/UniGene/info_ddd.shtml) was also used. Candidate genes were investigated for ORFs that encode membrane associated proteins. Genes were selected with similarities to known chaperones and cloned the cDNAs from olfactory epithelium cDNAs. The mRNA expression of each gene was verified by in situ hybridization. After isolating and subcloning into mammalian expression vectors, each cDNA together with a mouse OR (MOR203-1) tagged with a 20 N-terminal amino acids of rhodopsin (Rho-tag), was transfected into 293T cells. We measured whether these clones had any effect on the cell-surface expression of ORs by staining living cells using antibodies against the Rho-tag (see, e.g., Laird, D. W., and Molday, R. S. (1988) Invest Opthalmol Vis Sci 29, 419-428; herein incorporated by reference in its entirety). When MOR203-1 was transfected alone, antibody staining detected only faint cell-surface expression in less than 1% of the cells. A schematic diagram outlining the screening procedure utilized with the present invention is provided at FIG. 1.
293T cells were maintained in minimal essential medium containing 10% fetal bovine serum (M10). Lipofectamine 2000 (Invitrogen) was used for transfection. In live-cell staining, 16 hours after transfection, cells were incubated in M10 containing anti rhodopsin antibody, 4D2 (see, e.g., Laird, D. W., and Molday, R. S. (1988) Invest Opthalmol V is Sci 29, 419-428; herein incorporated by reference in its entirety) and 15 mM NaN3 at 4 degrees C. for 1 hour. After washing, cells were incubated with Cy3-conjugated anti mouse IgG (Jackson Immunologicals), washed and mounted. For FACS analysis, 4D2 and PE-conjugated anti mouse IgG (Jackson Immunologicals) were used to monitor the Rho tagged receptor expression. Anti HA rabbit antibodies (Sigma) and Alexa 488 conjugated anti rabbit IgG (Molecular Probes) was used to stain the HA-β2 adrenergic receptor. To establish the Hana3a cells, 1 ug/ml of puromycin was used for selection. 96 colonies were picked and assayed using luciferase assay using OREG.

Row | Molecule | response of olfr62 to odorant (luciferase) (olfr62) | OREG activity by luciferase, accessory protein co-expressed [1] | cell surface expression of MOR203-1 (MOR203-1)
1 | O=C1Cc2ccccc2O1 [2-coumaranone, 2-Coumaranone] | preferred ligand | – | –
2 | O=c1ccc2ccccc2o1 [coumarin, Coumarin] | responded | – | –
3 | O=Cc1ccc2c(c1)OCO2 [piperonal, Piperonal] | responded | – | –
4 | RTP4: other member of the RTP family; murine SEQ ID NO: 36 (protein, listed as Mus musculus) MLFPDDFSTWEQTFQELMQEEKPGAKWSLHLDKNIVPDGAALGWRQHQQTVGRFQCSRCCRSWTSAQVMILCHMYPDTLKSQGQARMRIFGQKCQKCFGCQFETPKFSTEIIKRILNNLVNYILQRYYGHRKIALTSNASLGEKVTLDGPHDTRNCEACSLNSHGRCALAHKVKPPRSPSPLPNSSSPSKSCPPPPQTRNTDFGNKTLQDFGNRTFQGCREPPQREIEPPLFLFLSIAAFALFSLFTR | – | did not produce a significant increase | not observed
5 | RTP2: a close relative of RTP1; murine SEQ ID NO: 34, human SEQ ID NO: 38 (protein, listed as Mus musculus) MSTSLTTCEWKKVFYEKMEVAKPADSWELIIDPTLKPNELGPGWKQYLEQHASGRFHCSWCWHTWQSANVVILFHMHLDRAQRVGSVRMRVFKQLCYQCGTSRLDESSMLEENIEGLVDNLITSLREQCYDEDGGQYRIHVASRPDSGLHRSEFCEACQEGIVHWKPSEKLLEEDAAYTDASKKKGQAGFISSFFSFRWCLFWGTLCLVIVYLQFFRGRSGFL | – | enhanced luciferase activities compared to OR alone | also enhanced cell surface expression
6 | REEP2: other member of the REEP family; murine SEQ ID NO: 22 (protein, listed as Mus musculus) MVSWIISRLVVLIFGTLYPAYSSYKAVKTKNVKEYVKWMMYWIVFAFFTTAETLTDIILSWFPFYFELKIAFVIWLLSPYTKGSSVLYRKFVHPTLSNKEKEIDEYITQARDKSYETMMRVGKRGLNLAANAAVTAAAKGQGVLSEKLRSFSMQDLTLIRDEDALPLQGPDGRLQPGPVGLLDTIEDLGDEPALSLRSSTSQPDPRTETSEDDLGDKAPKRTKPIKKVPRAEPPASKTLKTRPKKKSSGGGDSA | – | – | not observed
